The source of these data is FireProtDB (doi:10.1126/science.aai7825).

The conditions of the data set: Escherichia coli (strain K12); pH 7.5; Thermal; Intensity; HEPES 20mM; transition: 2; whole UniProt chain shown.

B1: Outer membrane porin C wild type, P06996 (protein)
chain: MKVKVLSLLVPALLVAGAANAAEVYNKDGNKLDLYGKVDGLHYFSDNKDVDGDQTYMRLGFKGETQVTDQLTGYGQWEYQIQGNSAENENNSWTRVAFAGLKFQDVGSFDYGRNYGVVYDVTSWTDVLPEFGGDTYGSDNFMQQRGNGFATYRNTDFFGLVDGLNFAVQYQGKNGNPSGEGFTSGVTNNGRDALRQNGDGVGGSITYDYEGFGIGGAISSSKRTDAQNTAAYIGNGDRAETYTGGLKYDANNIYLAAQYTQTYNATRVGSLGWANKAQNFEAVAQYQFDFGLRPSLAYLQSKGKNLGRGYDDEDILKYVDVGATYYFNKNMSTYVDYKINLLDDNQFTRDAGINTDNIVALGLVYQF
On to B1, for which the Tm (usually the temperature at which the thermal transition is half complete) was found to be 43.5 °C.

B2: Probable ketoamine kinase YniA wild type, P77739 (protein)
chain: MWQAISRLLSEQLGEGEIELRNELPGGEVHAAWHLRYAGHDFFVKCDERELLPGFTAEADQLELLSRSKTVTVPKVWAVGADRDYSFLVMDYLPPRPLDAHSAFILGQQIARLHQWSDQPQFGLDFDNALSTTPQPNTWQRRWSTFFAEQRIGWQLELAAEKGIAFGNIDAIVEHIQQRLASHQPQPSLLHGDLWSGNCALGPDGPYIFDPACYWGDRECDLAMLPLHTEQPPQIYDGYQSVSPLPADFLERQPVYQLYTLLNRARLFGGQHLVIAQQSLDRLLAA
With B2, the Tm is 40.4 °C.

B3: dTDP-glucose 4,6-dehydratase 2 wild type, P27830 (protein)
chain: MRKILITGGAGFIGSALVRYIINETSDAVVVVDKLTYAGNLMSLAPVAQSERFAFEKVDICDRAELARVFTEHQPDCVMHLAAESHVDRSIDGPAAFIETNIVGTYTLLEAARAYWNALTEDKKSAFRFHHISTDEVYGDLHSTDDFFTETTPYAPSSPYSASKASSDHLVRAWLRTYGLPTLITNCSNNYGPYHFPEKLIPLMILNALAGKSLPVYGNGQQIRDWLYVEDHARALYCVATTGKVGETYNIGGHNERKNLDVVETICELLEELAPNKPHGVAHYRDLITFVADRPGHDLRYAIDASKIARELGWLPQETFESGMRKTVQWYLANESWWKQVQDGSYQGERLGLKG
On to B3, for which the Tm came to 42.3 °C.

B4: Phospho-2-dehydro-3-deoxyheptonate aldolase, Phe-sensitive wild type, P0AB91 (protein)
chain: MNYQNDDLRIKEIKELLPPVALLEKFPATENAANTVAHARKAIHKILKGNDDRLLVVIGPCSIHDPVAAKEYATRLLALREELKDELEIVMRVYFEKPRTTVGWKGLINDPHMDNSFQINDGLRIARKLLLDINDSGLPAAGEFLDMITPQYLADLMSWGAIGARTTESQVHRELASGLSCPVGFKNGTDGTIKVAIDAINAAGAPHCFLSVTKWGHSAIVNTSGNGDCHIILRGGKEPNYSAKHVAEVKEGLNKAGLPAQVMIDFSHANSSKQFKKQMDVCADVCQQIAGGEKAIIGVMVESHLVEGNQSLESGEPLAYGKSITDACIGWEDTDALLRQLANAVKARRG
As to B4, the Tm turned out to be 41.7 °C.

B5: FKBP-type peptidyl-prolyl cis-trans isomerase FkpA wild type, P45523 (protein)
chain: MKSLFKVTLLATTMAVALHAPITFAAEAAKPATAADSKAAFKNDDQKSAYALGASLGRYMENSLKEQEKLGIKLDKDQLIAGVQDAFADKSKLSDQEIEQTLQAFEARVKSSAQAKMEKDAADNEAKGKEYREKFAKEKGVKTSSTGLVYQVVEAGKGEAPKDSDTVVVNYKGTLIDGKEFDNSYTRGEPLSFRLDGVIPGWTEGLKNIKKGGKIKLVIPPELAYGKAGVPGIPPNSTLVFDVELLDVKPAPKADAKPEADAKAADSAKK
B5: the Tm came out at 41.8 °C.

B6: Elongation factor P-like protein wild type, P0A6N8 (protein)
chain: MPRANEIKKGMVLNYNGKLLLVKDIDIQSPTARGAATLYKMRFSDVRTGLKVEERFKGDDIVDTVTLTRRYVDFSYVDGNEYVFMDKEDYTPYTFTKDQIEEELLFMPEGGMPDMQVLTWDGQLLALELPQTVDLEIVETAPGIKGASASARNKPATLSTGLVIQVPEYLSPGEKIRIHIEERRYMGRAD
As to B6, the Tm worked out at 43.5 °C.

B7: Nucleoid-associated protein YejK wild type, P33920 (protein)
chain: MSLDINQIALHQLIKRDEQNLELVLRDSLLEPTETVVEMVAELHRVYSAKNKAYGLFSEESELAQTLRLQRQGEEDFLAFSRAATGRLRDELAKYPFADGGFVLFCHYRYLAVEYLLVAVLSNLSSMRVNENLDINPTHYLDINHADIVARIDLTEWETNPESTRYLTFLKGRVGRKVADFFMDFLGASEGLNAKAQNRGLLQAVDDFTAEAQLDKAERQNVRQQVYSYCNEQLQAGEEIELKSLSKELAGVSEVSFTEFAAEKGYELEESFPADRSTLRQLTKFAGSGGGLTINFDAMLLGERIFWDPATDTLTIKGTPPNLRDQLQRRTSGGN
B7: the Tm is 42.6 °C.

B8: Probable L,D-transpeptidase YnhG wild type, P76193 (protein)
chain: MKRASLLTLTLIGAFSAIQAAWAVDYPLPPTGSRLVGQNQTYTVQEGDKNLQAIARRFDTAAMLILEANNTIAPVPKPGTTITIPSQLLLPDAPRQGIIVNLAELRLYYYPPGENIVQVYPIGIGLQGLETPVMETRVGQKIPNPTWTPTAGIRQRSLERGIKLPPVVPAGPNNPLGRYALRLAHGNGEYLIHGTSAPDSVGLRVSSGCIRMNAPDIKALFSSVRTGTPVKVINEPVKYSVEPNGMRYVEVHRPLSAEEQQNVQTMPYTLPAGFTQFKDNKAVDQKLVDKALYRRAGYPVSVSSGATPAASNAPSVESAQNGEPEQGNMLRVTQ
Turning to B8, the Tm was 44.1 °C.

B9: Imidazole glycerol phosphate synthase subunit HisH wild type, P60595 (protein)
chain: MNVVILDTGCANLNSVKSAIARHGYEPKVSRDPDVVLLADKLFLPGVGTAQAAMDQVRERELFDLIKACTQPVLGICLGMQLLGRRSEESNGVDLLGIIDEDVPKMTDFGLPLPHMGWNRVYPQAGNRLFQGIEDGAYFYFVHSYAMPVNPWTIAQCNYGEPFTAAVQKDNFYGVQFHPERSGAAGAKLLKNFLEM
Consider B9, for which the Tm is 42.4 °C.

B10: Fructose-1,6-bisphosphatase class 1 wild type, P0A993 (protein)
chain: MKTLGEFIVEKQHEFSHATGELTALLSAIKLGAKIIHRDINKAGLVDILGASGAENVQGEVQQKLDLFANEKLKAALKARDIVAGIASEEEDEIVVFEGCEHAKYVVLMDPLDGSSNIDVNVSVGTIFSIYRRVTPVGTPVTEEDFLQPGNKQVAAGYVVYGSSTMLVYTTGCGVHAFTYDPSLGVFCLCQERMRFPEKGKTYSINEGNYIKFPNGVKKYIKFCQEEDKSTNRPYTSRYIGSLVADFHRNLLKGGIYLYPSTASHPDGKLRLLYECNPMAFLAEQAGGKASDGKERILDIIPETLHQRRSFFVGNDHMVEDVERFIREFPDA
For the protein B10, the Tm worked out at 42.4 °C.

B11: Selenide, water dikinase wild type, P16456 (protein)
chain: MSENSIRLTQYSHGAGCGCKISPKVLETILHSEQAKFVDPNLLVGNETRDDAAVYDLGNGTSVISTTDFFMPIVDNPFDFGRIAATNAISDIFAMGGKPIMAIAILGWPINKLSPEIAREVTEGGRYACRQAGIALAGGHSIDAPEPIFGLAVTGIVPTERVKKNSTAQAGCKLFLTKPLGIGVLTTAEKKSLLKPEHQGLATEVMCRMNIAGASFANIEGVKAMTDVTGFGLLGHLSEMCQGAGVQARVDYEAIPKLPGVEEYIKLGAVPGGTERNFASYGHLMGEMPREVRDLLCDPQTSGGLLLAVMPEAENEVKATAAEFGIELTAIGELVPARGGRAMVEIR
On to B11, for which the Tm worked out at 41.7 °C.

B12: 5-amino-6-(5-phospho-D-ribitylamino)uracil phosphatase YbjI wild type, P75809 (protein)
chain: MSIKLIAVDMDGTFLSDQKTYNRERFMAQYQQMKAQGIRFVVASGNQYYQLISFFPEIANEIAFVAENGGWVVSEGKDVFNGELSKDAFATVVEHLLTRPEVEIIACGKNSAYTLKKYDDAMKTVAEMYYHRLEYVDNFDNLEDIFFKFGLNLSDELIPQVQKALHEAIGDIMVSVHTGNGSIDLIIPGVHKANGLRQLQKLWGIDDSEVVVFGDGGNDIEMLRQAGFSFAMENAGSAVVAAAKYRAGSNNREGVLDVIDKVLKHEAPFDQ
Take B12: the Tm was found to be 41.2 °C.

B13: Uncharacterized Nudix hydrolase YfcD wild type, P65556 (protein)
chain: MEQRRLASTEWVDIVNEENEVIAQASREQMRAQCLRHRATYIVVHDGMGKILVQRRTETKDFLPGMLDATAGGVVQADEQLLESARREAEEELGIAGVPFAEHGQFYFEDKNCRVWGALFSCVSHGPFALQEDEVSEVCWLTPEEITARCDEFTPDSLKALALWMKRNAKNEAVETETAE
For B13, the melting temperature (Tm) was 42.1 °C.

B14: Exodeoxyribonuclease III wild type, P09030 (protein)
chain: MKFVSFNINGLRARPHQLEAIVEKHQPDVIGLQETKVHDDMFPLEEVAKLGYNVFYHGQKGHYGVALLTKETPIAVRRGFPGDDEEAQRRIIMAEIPSLLGNVTVINGYFPQGESRDHPIKFPAKAQFYQNLQNYLETELKRDNPVLIMGDMNISPTDLDIGIGEENRKRWLRTGKCSFLPEEREWMDRLMSWGLVDTFRHANPQTADRFSWFDYRSKGFDDNRGLRIDLLLASQPLAECCVETGIDYEIRSMEKPSDHAPVWATFRR
Take B14: the Tm came to 42.6 °C.

B15: Glutathione S-transferase YfcF wild type, P77544 (protein)
chain: MSKPAITLWSDAHFFSPYVLSAWVALQEKGLSFHIKTIDLDSGEHLQPTWQGYGQTRRVPLLQIDDFELSESSAIAEYLEDRFAPPTWERIYPLDLENRARARQIQAWLRSDLMPIREERPTDVVFAGAKKAPLTAEGKASAEKLFAMAEHLLVLGQPNLFGEWCIADTDLALMINRLVLHGDEVPERLVDYATFQWQRASVQRFIALSAKQSG
For B15, the Tm worked out at 41.6 °C.

B16: Ribosome-binding ATPase YchF wild type, P0ABU2 (protein)
chain: MGFKCGIVGLPNVGKSTLFNALTKAGIEAANFPFCTIEPNTGVVPMPDPRLDQLAEIVKPQRTLPTTMEFVDIAGLVKGASKGEGLGNQFLTNIRETEAIGHVVRCFENDNIIHVSGKVNPADDIEVINTELALADLDTCERAIHRVQKKAKGGDKDAKAELAVLEKCLPQLENAGMLRALDLSAEEKAAIRYLSFLTLKPTMYIANVNEDGFENNPYLDQVREIAAKEGSVVVPVCAAVEADIAELDDEERDEFMQELGLEEPGLNRVIRAGYKLLNLQTYFTAGVKEVRAWTIPVGATAPQAAGKIHTDFEKGFIRAQTISFEDFITYKGEQGAKEAGKMRAEGKDYIVKDGDVMNFLFNV
As to B16, the Tm stood at 41.3 °C.
